Source: patent US20030027252A1 (TULARIK, published 2003)
Where no end group is shown, it is not given here.

Legend:
Human TGR342 [1] = target: T1, Human TGR342 (human, UniProt Q969V1 1-340); assay: [125I]-MCH binding to membranes of HEK293 cells transiently transfected with pEF6/V5-TGR342; specific binding = total minus mock-transfected membranes
T1 construct: Full-length cDNA in pEF6-V5 (Invitrogen), transiently expressed in HEK293 or CHO cells; also called MCHR2; MCHR-2

Human TGR342 [2] = target: T1, Human TGR342; assay: cell-based or functional assay

T1 sequence (Q969V1 whole entry): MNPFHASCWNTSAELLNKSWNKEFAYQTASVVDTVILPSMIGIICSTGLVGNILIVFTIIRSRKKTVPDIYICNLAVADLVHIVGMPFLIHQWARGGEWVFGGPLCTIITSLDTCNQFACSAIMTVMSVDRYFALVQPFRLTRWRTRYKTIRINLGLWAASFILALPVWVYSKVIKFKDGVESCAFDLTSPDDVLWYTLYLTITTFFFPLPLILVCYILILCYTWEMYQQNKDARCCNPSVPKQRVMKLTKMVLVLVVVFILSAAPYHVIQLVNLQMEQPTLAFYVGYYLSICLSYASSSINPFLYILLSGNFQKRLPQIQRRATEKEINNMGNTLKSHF

B1: [^125I]-MCH (peptide, UniProt P20382 147-165, looked up)
peptide: DFDMLRCMLGRVYRPCWQV
modifications: ends and bridges not checked; also: 125I label, labelled residue not given here
notes: mature
Question: How did the Kd (Human TGR342 [1]) turn out when B1 was run?
Answer: Its Kd is 9.6 nM.

B2: melanin-concentrating hormone (MCH) (peptide, UniProt P20382 147-165, looked up)
peptide: DFDMLRCMLGRVYRPCWQV
modifications: ends and bridges not checked; cysteine pairing not given here
Question: For B2, which “EC50, aequorin luminescence assay (intracellular calcium mobilization), transfected HEK293 cells” value (Human TGR342 [2]) is on record?
Answer: Its value is 2 nM.
